Laboratory results as given in patent US20250320312A1 (OXITOPE PHARMA B V, published 2025).
Where a chain is given by its changes, count along the chain named.

B1: PcOxP_DB02_F07 (scFv, V domains shown)
VH: EVQLLESGGGLVQPGGSLRLSCAASGFWFSDFYMEWVRQAPGKGLEWVAASRNKANDYTTEYADSVKGRFTISRDNSKNTLYLQMNSLRAEDTAVYYCARDYYGSSYWYFDVWGQGTLVTVSS
VL: DIQMTQSPSSLSASVGDRVTITCTASQSLYSSKNKVHYLAWYQQKPGKAPKLLIYGESNRYIGVPSRFSGSGSGTDFTLTISSLQPEDFATYYCAQFYSYPLTFGGGTKVEIK
notes: scFv in periplasmic extract
B2: PcOxP_DB02_F12 (scFv, V domains shown)
VH: B1 VH with W28T, F32A
VL: B1 VL with T24E, Q27E, N34H, E57A, I62P, S99E
notes: scFv in periplasmic extract
B3: PcOxP_DB02_G06 (scFv, V domains shown)
VH: B1 VH with W28T, D31S, F32Y, K54Q, S106P
VL: B1 VL with Q27E, N34H, E57V
notes: scFv in periplasmic extract
B4: PcOxP_DB02_G07 (scFv, V domains shown)
VH: B1 VH with W28T, F32G
VL: B1 VL with Q27E, N34H, E57A, I62G
notes: scFv in periplasmic extract
B5: PcOxP_DB02_G09 (scFv, V domains shown)
VH: B1 VH with W28T, F32Q
VL: B1 VL with Q27E, N34H, E57A, Y61P
notes: scFv in periplasmic extract
B6: PcOxP_DB02_H03 (scFv, V domains shown)
VH: B1 VH with W28T
VL: B1 VL with Q27E, L29I, Y30S, N34H, E57A, R60L, I62S, Q96H
notes: scFv in periplasmic extract
B7: PcOxP_DB02_H10 (scFv, V domains shown)
VH: B1 VH with W28T, F32Y
VL: B1 VL with Q27E, N34H, E57A, S58G, S99E
notes: scFv in periplasmic extract
B8: PcOxP_DB03_A03 (scFv, V domains shown)
VH: B1 VH with W28T
VL: B1 VL with Q27E, N34H, E57A, N59F
notes: scFv in periplasmic extract
B9: PcOxP_DB03_A08 (scFv, V domains shown)
VH: B1 VH with W28T, F32V
VL: B1 VL with Q27E, N34H, E57A
notes: scFv in periplasmic extract
B10: PcOxP_DB03_A09 (scFv, V domains shown)
VH: B1 VH with W28T, F32Y
VL: B1 VL with Q27E, N34H, E57A, Y61G
notes: scFv in periplasmic extract
B11: PcOxP_DB03_A11 (scFv, V domains shown)
VH: B1 VH with W28T, D31S, F32Y, K54Q, F110L
VL: B1 VL with Q27E, N34H, E57A, S58D, S99H
notes: scFv in periplasmic extract
B12: PcOxP_DB03_B02 (scFv, V domains shown)
VH: B1 VH with W28A
VL: B1 VL with Q27E, N34H, E57A, I62D, S99E
notes: scFv in periplasmic extract
B13: PcOxP_DB03_C03 (scFv, V domains shown)
VH: B1 VH with W28T, A55Y
VL: B1 VL with Q27E, N34H, E57A
notes: scFv in periplasmic extract
B14: PcOxP_DB03_C06 (scFv, V domains shown)
VH: B1 VH with F27A, W28T, K54G, S105N
VL: B1 VL with Q27E, N34H, E57A, Y61Q, I62S, S99V
notes: scFv in periplasmic extract
B15: PcOxP_DB03_C11 (scFv, V domains shown)
VH: B1 VH with W28D, E61D, Y103F
VL: B1 VL with Q27E, N34H, E57A, I62Q, S99F
notes: scFv in periplasmic extract
B16: PcOxP_DB03_C12 (scFv, V domains shown)
VH: B1 VH with W28T, F32Y
VL: B1 VL with Q27E, N34H, E57A, I62G
notes: scFv in periplasmic extract
B17: PcOxP_DB03_D01 (scFv, V domains shown)
VH: B1 VH with W28T, F32E
VL: B1 VL with Q27E, N34H, E57A, S99Y
notes: scFv in periplasmic extract
B18: PcOxP_DB03_D07 (scFv, V domains shown)
VH: B1 VH with W28T, F32V
VL: B1 VL with Q27E, N34H, E57A, I62S, S99K
notes: scFv in periplasmic extract
B19: PcOxP_DB03_D08 (scFv, V domains shown)
VH: B1 VH with S106A
VL: B1 VL with Q27E, N34H, E57A
notes: scFv in periplasmic extract
B20: PcOxP_DB03_D11 (scFv, V domains shown)
VH: B1 VH with W28T, S105H
VL: B1 VL with Q27E, N34H, E57A, N59S, S99E
notes: scFv in periplasmic extract
B21: PcOxP_DB03_E01 (scFv, V domains shown)
VH: B1 VH with W28T, F32Y, T60V
VL: B1 VL with Q27E, N34H, E57T, S99E
notes: scFv in periplasmic extract
B22: PcOxP_DB03_E02 (scFv, V domains shown)
VH: B1 VH with F27W, W28T
VL: B1 VL with Q27E, S32Q, N34H, E57A, S99Y
notes: scFv in periplasmic extract
B23: PcOxP_DB03_E07 (scFv, V domains shown)
VH: B1 VH with W28T, F32N, T60N
VL: B1 VL with Q27E, N34H, E57A
notes: scFv in periplasmic extract

What follows are binders tested against Peptide 5: Biotin-…-[Tyr(PC)]-acid (assay: scFv ELISA).

Row | Binder | OD450 [OD450]
1 | B1 | 0.91
2 | B2 | 0.81
3 | B3 | 0.87
4 | B4 | 0.99
5 | B5 | 0.71
6 | B6 | 0.82
7 | B7 | 1.39
8 | B8 | 0.81
9 | B9 | 0.71
10 | B10 | 1.09
11 | B11 | 1.08
12 | B12 | 1.64
13 | B13 | 1.66
14 | B14 | 0.61
15 | B15 | 0.75
16 | B16 | 1.77
17 | B17 | 1.6
18 | B18 | 0.95
19 | B19 | 0.57
20 | B20 | 0.66
21 | B21 | 2.11
22 | B22 | 1.49
23 | B23 | 0.86

Each binder was assayed against BSA (UniProt P02769) (assay: scFv ELISA).
Chain of BSA (P02769 25-607 limits assumed): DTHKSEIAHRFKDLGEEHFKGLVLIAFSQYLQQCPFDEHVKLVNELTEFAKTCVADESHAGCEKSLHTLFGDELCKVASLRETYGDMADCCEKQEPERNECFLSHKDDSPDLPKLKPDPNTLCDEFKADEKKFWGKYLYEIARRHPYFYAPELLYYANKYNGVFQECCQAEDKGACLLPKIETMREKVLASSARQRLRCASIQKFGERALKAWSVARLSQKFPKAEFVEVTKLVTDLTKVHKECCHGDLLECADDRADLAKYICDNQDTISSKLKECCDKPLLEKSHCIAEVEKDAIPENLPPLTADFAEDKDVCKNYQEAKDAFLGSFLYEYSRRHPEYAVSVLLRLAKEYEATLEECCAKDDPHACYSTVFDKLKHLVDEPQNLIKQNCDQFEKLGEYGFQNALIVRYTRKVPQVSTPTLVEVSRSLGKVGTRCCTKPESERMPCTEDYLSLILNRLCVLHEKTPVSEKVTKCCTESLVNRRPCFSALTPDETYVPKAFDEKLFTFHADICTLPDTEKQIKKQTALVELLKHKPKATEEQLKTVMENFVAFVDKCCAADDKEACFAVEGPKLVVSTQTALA

Row | Binder | OD450 [OD450]
24 | B1 | 0.1
25 | B2 | 0.07
26 | B3 | 0.08
27 | B4 | 0.1
28 | B5 | 0.1
29 | B6 | 0.08
30 | B7 | 0.08
31 | B8 | 0.09
32 | B9 | 0.11
33 | B10 | 0.09
34 | B11 | 0.08
35 | B12 | 0.07
36 | B13 | 0.09
37 | B14 | 0.07
38 | B15 | 0.07
39 | B16 | 0.09
40 | B17 | 0.08
41 | B18 | 0.12
42 | B19 | 0.1
43 | B20 | 0.08
44 | B21 | 0.09
45 | B22 | 0.11
46 | B23 | 0.08

The binders below were run against Peptide 1: Biotin-…-[Tyr(PC)]-acid (assay: scFv ELISA).

Row | Binder | OD450 [OD450]
47 | B1 | 0.43
48 | B2 | 0.5
49 | B3 | 0.43
50 | B4 | 0.52
51 | B5 | 0.35
52 | B6 | 0.27
53 | B7 | 1.43
54 | B8 | 0.54
55 | B9 | 0.67
56 | B10 | 1.02
57 | B11 | 1.12
58 | B12 | 2.02
59 | B13 | 1.36
60 | B14 | 0.64
61 | B15 | 1.14
62 | B16 | 2.74
63 | B17 | 2.51
64 | B18 | 0.75
65 | B19 | 0.54
66 | B20 | 0.5
67 | B21 | 2.5
68 | B22 | 2
69 | B23 | 0.78

Biological target: T1, Peptide 4: Biotin-AGGGGSGGGGSGGGGSAAA-Tyr-acid (N-terminal biotin; C-terminal acid)
T1 construct: control peptide without PC
T1 peptide: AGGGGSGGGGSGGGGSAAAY
Assay: scFv ELISA
Experimental: (§1) For ELISA analysis of scFv binding, 96-well polystyrene plates were coated with Peptide 1, 4, 5, 8 or 100 μL BSA (10 μg/mL) in PBS at 4° C. overnight. Plates were washed three times with PBS-Tween and blocked with 100 μL 1% BSA-TBS for 1 hour at room temperature. 96-well streptavidin coated plates were coated with 100 μL biotinylated PC-peptides (1 μg/mL) in PBS for 1 hour at room temperature.
(§2) All plates were washed three times with PBS-Tween before 40 μL aliquots of PPE were added to assay plates along with 50 μL 10% BSA, and plates were incubated for 1 hour at room temperature. After washing, […] HRP conjugated anti-V5 in 5% BSA was added, and plates were incubated at room temperature for 30 mins. Plates were washed and 100 μL TMB substrate was added. Color was left to develop at room temperature before the reaction was stopped with 100 μL 1N HCl. The amount of scFv bound to each well was quantitated from absorbance measurement at 450 nm (OD450).

Row | Binder | OD450 [OD450]
70 | B1 | 0.05
71 | B2 | 0.04
72 | B3 | 0.06
73 | B4 | 0.05
74 | B5 | 0.05
75 | B6 | 0.05
76 | B7 | 0.05
77 | B8 | 0.06
78 | B9 | 0.06
79 | B10 | 0.05
80 | B11 | 0.05
81 | B12 | 0.05
82 | B13 | 0.05
83 | B14 | 0.05
84 | B15 | 0.05
85 | B16 | 0.05
86 | B17 | 0.05
87 | B18 | 0.06
88 | B19 | 0.05
89 | B20 | 0.06
90 | B21 | 0.06
91 | B22 | 0.06
92 | B23 | 0.05

Biological target: T2, Peptide 8: Biotin-AEAAAKEAAAKEAAAKEAAAKAAA-Tyr-acid (N-terminal biotin; C-terminal acid)
T2 construct: control peptide without PC
T2 peptide: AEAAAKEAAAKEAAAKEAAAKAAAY
Assay: scFv ELISA
Experimental: as §1, §2

Row | Binder | OD450 [OD450]
93 | B1 | 0.05
94 | B2 | 0.04
95 | B3 | 0.05
96 | B4 | 0.09
97 | B5 | 0.04
98 | B6 | 0.05
99 | B7 | 0.05
100 | B8 | 0.06
101 | B9 | 0.05
102 | B10 | 0.05
103 | B11 | 0.05
104 | B12 | 0.05
105 | B13 | 0.05
106 | B14 | 0.05
107 | B15 | 0.04
108 | B16 | 0.05
109 | B17 | 0.05
110 | B18 | 0.05
111 | B19 | 0.05
112 | B20 | 0.05
113 | B21 | 0.06
114 | B22 | 0.05
115 | B23 | 0.05
